Key:
ICAM-1 = ICAM-1 surface protein expression on NHBE cells by flow cytometry; assay type: cell-based, human; conditions: 100 ng/ml, 48 hours, mean±SD (n=4)
Procedure: FIG. 4. Effect of ML-1 on ICAM-1 surface expression on NHBE cells by Flow Cytometry. NHBE cells were treated for 48 hours under following conditions: medium only, rIL-17 (100 ng/ml), purified His-tagged protein (Positope, 100 ng/ml), or ML-1 (100 ng/ml) as indicated. The mean fluorescence intensity of ICAM-1 surface expression was measured. The experiment was conducted four times. The results shown are from a representative experiment. * p<0.01.
To determine whether ML-1 is able to induce ICAM-1 expression on NHBE cells, surface expression of ICAM-1 on NHBE cells was measured and the effects of ML-1 and IL-17 were compared.
NHBE cells were treated with IL-17 (100 ng/ml), ML-1 (100 ng/ml), or a control His protein (Positope, 100 ng/ml). The cells were harvested following treatment with 0.1% trypsin-0.02% EDTA at 37° C. for 6 minutes and suspended in PBS containing 2% BSA and 0.02 % sodium azide. One million cells were incubated with a mouse anti-human ICAM-1 monoclonal antibody (R&D Systems, Minneapolis, Minn.) on ice for 30 minutes. […] After three additional washes in PBS, the cells were resuspended in PBS and immediately analyzed with a FACScan flow cytometer (Becton Dickinson, Mountain View, Calif.). […] Indices are expressed as mean±SD (n=4).

JNK = experiment: Western blotting of JNK activation in ML-1-stimulated cells; assay type: cell-based, human; conditions: any time point, FIG. 6A (PBECs)
Procedure: FIGS. 6A-6D. Kinetic activation of ERK1/2 by ML-1 in PBECs (FIG. 6A) and HUVECs (FIG. 6B). The cells were incubated with or without ML-1 (100 ng/ml) for different time points as indicated. Western blotting analysis was performed by using antibodies against different MAP kinases as described in Example 8. FIGS. 6C and 6D. Effect of PD98059 on ML-1-induced phosphorylation of ERK1/2 in PBECs (FIG. 6C) and HUVECs (FIG. 6D). The cells were preincubated with PD98059 ([…]) or DMSO vehicle control for 1 hour, followed by stimulation of PBECs and HUVECs with medium or ML-1 for 20 minutes or 10 minutes, respectively. The results shown are representative of three separate experiments.
For analysis of activation of MAP kinases, PBECs were treated with IL-17 (100 ng/ml) for various time periods, with or without the MEK 1/2 inhibitor PD98059 ([…]; Calbiochem, La Jolla, Calif.) (15), the p38 inhibitor SB202190 (0.5-10 μM; ref. 16), or a vehicle control, DMSO (Me2SO) for 1 hour. […] Following the treatment, the cells were washed with ice-cold PBS. […]
Immunoreactive proteins were detected using antibodies against various kinases and phosphorylated kinases. […] Western blotting detection reagents (Amersham) and Hyper ECL luminescence detection film (Amersham) were used. […]

B1: ML-1: new member of the IL-17 cytokine family, SEQ ID NO:2; His-tagged recombinant protein expressed in COS-7 cells and affinity purified (protein, listed as Homo sapiens)
chain: MKLDIGIINENQRVSMSRNIESRSTSPWNYTVTWDPNRYPSEVVQAQCRNLGCINAQGKEDISMNSVPIQQETLVVRRKHQGCSVSFQLEKVLVTVGCTCVTPVIHHVQ
modifications: His tag
- ICAM-1 surface expression, mean fluorescence intensity (MFI) (ICAM-1): 31.42±4.39
- activation of JNK kinase (JNK): No activation
